We go through 2 molecules from paper PMC6703420, “How Thermophilic Gram-Positive Organisms Perform Extracellular Electron Transfer: Characterization of the Cell Surface Terminal Reductase OcwA” (mBio, 2019).

Data set [1] addresses T1, OcwA (Outer cell wall protein A), TherJR_2595 (Thermincola carboxydiphila, UniProt D5XBK3).
T1 construct: native signal peptide replaced by that of S. oneidensis MR-1 stc, cleaved (N-terminus EKPAD); E. coli JM109(DE3), HisTrap purified; ~62 kDa; nine c-type hemes; monomer/dimer mixture; precursor 525 residues
Kind of data set: […] NMR titration. It is filed as binding. Particulars: 100 μM FMN, 20 mM phosphate pH 7.6, 100 mM KCl, 25°C; slow exchange.

Substrate in the data set “purified protein”: O=NO
Kind of data set: purified protein. The data set is classed as biochemical, Thermincola carboxydiphila. To be noted: up to 1 mM reduced methyl viologen, 50 mM potassium phosphate pH 7.0, 55°C, anaerobic.

For `Cc1cc2nc3c(=O)[nH]c(=O)nc-3n(C[C@H](O)[C@H](O)[C@H](O)COP(=O)(O)O)c2cc1C` [FMN, flavin mononucleotide], the “31P NMR titration” value in data set [1] is listed as “These spectral changes arise from binding of FMN to OcwA in a slow exchange regime”.

B1: OcwA (Outer cell wall protein A), TherJR_2595 (Thermincola carboxydiphila JR) (protein)
chain: EKPADSGPAVAQNTEYVGDEACKTCHSDVHSAWSETSHGNFIKDVTKDPKALPGNFEGNYPKMLNFKAEDIQYVLLGKPGALKVQELVGKKGTFGVPADDYPVMWASWDAGKGEWEIEVEAIGEGTPWLSTCAGCHVTGLTVPTDKNPKAAKAFAGFGITCEQCHGPGAKHIKNPQGEKMVISYDAENCGQCHSRGDSVAKTPDGKPFGYPYNDEGQYVPGKKLADYYTVVSVEGDKEGKLFWPTKHAKNSHHLQYPEWLMTGHATALETLKGNGHAQDRCLKCHSAEAYLAKEGTTVTMNDAKLGVTCQVCHASHDPAATKEAFLRKPKTEICTQCHNAEGGIVAGKEVHHPHKEMNEGKIGLGFPDSPSVMYKAGVTCVDCHMPKTAGPKASHLMKVVMPKDGKANGMPDSCSSCHPGASQDYLQNVIDTWQNDIKGRLAKVKAKLDAKKAAANSQAYKEALTYYSIVAADGSNGVHNYDLAVKLLTAAEQKLQ
notes: native signal peptide replaced by that of S. oneidensis MR-1 stc, cleaved (N-terminus EKPAD); E. coli JM109(DE3), HisTrap purified; ~62 kDa; nine c-type hemes; monomer/dimer mixture; precursor 525 residues
On to B1, for which, in “purified protein”, the Km was found to be 65 µM and the kcat amounted to 0.017 s⁻¹.

The Km is the substrate concentration at which the rate is half of its maximum. The kcat is the maximal rate divided by the concentration of active sites.
